Assay results taken from US20240343811A1 (SHANDONG SIMCERE BIOPHARMACUTICAL, published 2024).
Like-named read-outs stand apart in the source and are kept apart here. Values belong to the binder of their own block, whether it stands above or below them.

Tests used:
[1] = molecular target: T1, human CD16a (158V), full length, on cells (human, UniProt P08637 17-254); assay: FACS on FlpinCHO cells
T1 construct: also used as target for the bought Jurkat-NFAT reporter line stably expressing human CD16a (158V); also called FlpinCHO-human CD16a (158V); FlpinCHO-CD16a (158V)
Protocol: (§1) The required cells were scale-up cultured in a T-75 cell culture flask to the logarithmic growth phase. The medium was aspirated, and the cells were washed twice with a PBS buffer and then digested with trypsin. After the digestion was terminated, the cells were washed twice with the PBS buffer. The cells were counted, and then the cell pellet was resuspended with a [PBS+2% (w/w) BSA] blocking solution to 2×10⁶ cells/ml, and added to a 96-well FACS reaction plate at 50 μl/well. […] 50 μl/well of the antibody to be detected was added at different concentrations, and incubated on ice for 1 hour. […] The mixture was centrifuged and washed 5 times with PBS, and FACS (FACS Canto II, purchased from BD Company) was used for detection and result analysis. Data analysis was performed by software (CellQuest) to obtain the mean fluorescence intensity (MFI) of the cells. Then, software (GraphPad Prism8) was used for analysis, data fitting and EC50 value calculation.
(§2) The binding of a humanized antibody to FlpinCHO-human CD16a cells was detected according to the method of Example 3.1.
Target sequence in this assay (P08637 17-254 F176V limits assumed): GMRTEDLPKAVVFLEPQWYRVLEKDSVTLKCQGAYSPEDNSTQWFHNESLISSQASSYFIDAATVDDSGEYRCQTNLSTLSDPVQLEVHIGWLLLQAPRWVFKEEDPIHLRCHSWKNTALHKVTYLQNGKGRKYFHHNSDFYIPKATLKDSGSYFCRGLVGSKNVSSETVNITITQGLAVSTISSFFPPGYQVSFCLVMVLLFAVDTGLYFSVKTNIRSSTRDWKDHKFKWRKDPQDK

[2] = molecular target: T2, human CD16a (158F), full length, on FlpinCHO cells (human, UniProt P08637 17-254); assay: FACS on FlpinCHO cells
Protocol: as §1, §2
Target sequence in this assay (P08637 17-254 limits assumed): as the sequence (P08637 17-254 F176V limits assumed) above, with V160F counted along it

[3] = molecular target: T1, human CD16a (158V), full length, on …; assay: cell-based or functional assay
Target sequence in this assay (P08637 17-254 F176V limits assumed): as the sequence (P08637 17-254 F176V limits assumed) above

[4] = molecular target: T3, human CD16b (NA1), full length, on FlpinCHO cells (human, UniProt O75015 17-200); assay: FACS on FlpinCHO cells
T3 construct: also called FlpinCHO-human CD16b (NA1)
T3 chain: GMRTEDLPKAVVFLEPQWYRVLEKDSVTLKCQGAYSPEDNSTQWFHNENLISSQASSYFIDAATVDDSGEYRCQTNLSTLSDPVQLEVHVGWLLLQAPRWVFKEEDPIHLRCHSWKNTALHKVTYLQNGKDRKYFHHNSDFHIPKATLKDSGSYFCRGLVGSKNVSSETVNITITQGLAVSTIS
Protocol: as §1
(§3) The binding of an antibody to be detected to FlpinCHO-human CD16b cells was detected according to the method of Example 3.1.

[5] = molecular target: T4, human CD16b (NA2), full length, on FlpinCHO cells (human, UniProt O75015 17-200); assay: FACS on FlpinCHO cells
T4 construct: also called FlpinCHO-human CD16b (NA2)
T4 chain: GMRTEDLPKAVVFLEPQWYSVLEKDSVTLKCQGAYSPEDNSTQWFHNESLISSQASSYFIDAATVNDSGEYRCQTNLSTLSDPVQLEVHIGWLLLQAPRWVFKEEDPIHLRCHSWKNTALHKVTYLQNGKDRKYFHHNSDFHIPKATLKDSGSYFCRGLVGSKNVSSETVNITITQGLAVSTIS
Protocol: as §1, §3

Human CD16a (158F)-his = molecular target: T5, Human CD16a (158F)-his (human); assay: SPR (Biacore), antibody captured on Protein A
T5 construct: entry holds ECD, AVI tag, linker and His tag
Protocol: (§4) A sample buffer and a running buffer were HBS-EP+ (10 mM HEPES, 150 mM NaCl, 3 mM EDTA and 0.05% surfactant P20) (GE Healthcare; BR-1006-69). The flow-through cell was set to 25° C. The sample block was set to 16° C. Both were pretreated with the running buffer. In each cycle, an antibody to be detected was first captured with a Protein A chip, and then a single concentration of CD16 antigen protein was injected. The binding and dissociation processes of the antibody and the antigen protein were recorded, and finally Glycine pH 1.5 (GE Healthcare; BR-1003-54) was used to complete chip regeneration. Binding was measured by injecting different concentrations of recombinant human CD16-ECD his proteins in a solution for 240 s with a flow rate of 30 μL/min, wherein a total of 5 concentrations were prepared by using 200 nM as a starting concentration (see the detailed results for the actual concentration in the test) and performing a 1:1 dilution. The dissociation phase was monitored for up to 600 s and was triggered by switching from a sample solution to a running buffer. The surface was regenerated by washing with a 10 mM glycine solution (pH 1.5) for 30 s at a flow rate of 30 μL/min. Bulk refractive index difference was corrected by subtracting the response obtained from the goat anti-human Fc surface. Blank injection was also subtracted (=double reference). For calculation of apparent KD and other kinetic parameters, Langmuir 1:1 model was used.

[6] = molecular target: T3, human CD16b (NA1), full length, on …; assay: FACS on FlpinCHO cells
Protocol: as §1, §3

[7] = molecular target: T4, human CD16b (NA2), full length, on …; assay: FACS on FlpinCHO cells
Protocol: as §1, §3

[8] = molecular target: T1, human CD16a (158V), full length, on …; assay: FACS, biotinylated antibody, +10 mg/mL human immunoglobulin
Protocol: as §1, with “The” for “The required cells were scale-up cultured in a T-75 cell culture flask to the logarithmic growth phase. The”
(§5) An antibody to be detected was labeled in advance according to the instructions of a biotin labeling kit (EZ-Link™ NHS-PEG4 Biotinylation Kit, purchased from Thermofisher Scientific, catalog number: 21455). […] Detection was performed according to the method of Example 3.1, wherein the biotinylated antibody was detected with fluorescein APC-labeled Streptavidin (High Concentration) (purchased from Biolegend, catalog number: 405243).

[9] = molecular target: T2, human CD16a (158F), full length, on …; assay: as above
Protocol: as §1, with “The” for “The required cells were scale-up cultured in a T-75 cell culture flask to the logarithmic growth phase. The”
as §5

[10] = molecular target: T1, human CD16a (158V), full length, on …; assay: FACS on FlpinCHO cells; remark: listed apart in the source
Protocol: as §1

[11] = molecular target: T2, human CD16a (158F), full length, on …; assay: FACS on FlpinCHO cells; remark: listed apart in the source
Protocol: as §1

Human CD16b (NA1)-his = molecular target: T6, Human CD16b (NA1)-his (human); assay: SPR (Biacore), antibody captured on Protein A
T6 construct: entry holds ECD, linker, His tag and AVI tag
T6 chain: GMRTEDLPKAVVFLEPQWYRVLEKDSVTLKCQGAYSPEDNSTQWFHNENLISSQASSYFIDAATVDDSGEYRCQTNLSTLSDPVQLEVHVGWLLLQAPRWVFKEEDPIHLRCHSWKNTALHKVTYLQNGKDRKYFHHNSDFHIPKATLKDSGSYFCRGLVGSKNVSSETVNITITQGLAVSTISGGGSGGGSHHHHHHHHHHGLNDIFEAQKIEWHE
Protocol: as §4

Human CD16a (158V)-his = molecular target: T7, Human CD16a (158V)-his (human); assay: SPR (Biacore), antibody captured on Protein A
T7 construct: entry holds ECD, AVI tag, linker and His tag
Protocol: as §4

[12] = molecular target: T1, human CD16a (158V), full length, on …; assay: cell-based or functional assay; remark: listed apart in the source
[13] = molecular target: T1, human CD16a (158V), full length, on …; assay: FACS, biotinylated antibody
Protocol: as §1, with “The” for “The required cells were scale-up cultured in a T-75 cell culture flask to the logarithmic growth phase. The”
as §5

[14] = molecular target: T2, human CD16a (158F), full length, on …; assay: FACS, biotinylated antibody
Protocol: as §1, with “The” for “The required cells were scale-up cultured in a T-75 cell culture flask to the logarithmic growth phase. The”
as §5

EC50 [1]: 0.28 nM | Maximum mean fluorescence intensity [1]: 8240 | EC50 [2]: 0.3 nM | Maximum mean fluorescence intensity [2]: 8930 | EC50, activation activity for Jurkat cell [3]: 0.01 nM | Maximum fluorescence value [3]: 167000 | EC50 [4]: 0.25 nM | Maximum mean fluorescence intensity [4]: 59800 | Maximum mean fluorescence intensity [5]: 204 | binding result [5]: no binding (tested: 100 nM) | Kd (Human CD16a (158F)-his): 24.6 nM | koff (Human CD16a (158F)-his): 0.00116 s⁻¹ | kon (Human CD16a (158F)-his): 47100 M⁻¹ s⁻¹
B1: VHH06-06 humanized VHH-Fc antibody (Fc fusion)
chain: EVQLVESGGGVVQPGGSLRLSCAASGSTWTTYAVRWYRQAPGKQREWVAFISVDGSTNYADSVKGRFTVSRDNSKNTVYLQMNSLRAEDTADYICRVGGQYWGQGTMVTVSSEPKSSDKTHTCPPCPAPEEFGGPSVFLFPPKPKDTLMISRTPEVTCVVVAVSHEDPEVKFNWYVDGVEVHNAKTKPREEQYNSTYRVVSVLTVLHQDWLNGKEYKCKVSNKALPAPIEKTISKAKGQPREPQVYTLPPSREEMTKNQVSLTCLVKGFYPSDIAVEWESNGQPENNYKTTPPVLDSDGSFFLYSKLTVDKSRWQQGNVFSCSVMHEALHNHYTQKSLSLSPGK

EC50 [1]: 0.5 nM | Maximum mean fluorescence intensity [1]: 8460 | EC50 [2]: 0.5 nM | Maximum mean fluorescence intensity [2]: 9160 | EC50, activation activity for Jurkat cell [3]: 0.02 nM | Maximum fluorescence value [3]: 173000 | EC50 [4]: 0.33 nM | Maximum mean fluorescence intensity [4]: 53500 | Maximum mean fluorescence intensity [5]: 167 | binding result [5]: no binding (tested: 100 nM) | Kd (Human CD16a (158F)-his): 32.1 nM | koff (Human CD16a (158F)-his): 0.00139 s⁻¹ | kon (Human CD16a (158F)-his): 43100 M⁻¹ s⁻¹
B2: VHH06-07 humanized VHH-Fc antibody (Fc fusion)
chain: EVQLVESGGGVVQPGGSLRLSCAASGSTWTTYAVRWYRQAPGKQREWVAFISVDGSTNYADSVKGRFTISRDNSKNTVYLQMNSLRAEDTADYICRVGGQYWGQGTQVTVSSEPKSSDKTHTCPPCPAPEEFGGPSVFLFPPKPKDTLMISRTPEVTCVVVAVSHEDPEVKFNWYVDGVEVHNAKTKPREEQYNSTYRVVSVLTVLHQDWLNGKEYKCKVSNKALPAPIEKTISKAKGQPREPQVYTLPPSREEMTKNQVSLTCLVKGFYPSDIAVEWESNGQPENNYKTTPPVLDSDGSFFLYSKLTVDKSRWQQGNVFSCSVMHEALHNHYTQKSLSLSPGK

EC50 [6]: 0.85 nM | Maximum mean fluorescence intensity [6]: 49700 | Maximum mean fluorescence intensity [7]: 95 | binding result [7]: no binding (tested: 100 nM) | EC50 [8]: 1.15 nM | Maximum mean fluorescence intensity [8]: 9000 | EC50 [9]: 1.21 nM | Maximum mean fluorescence intensity [9]: 6850 | EC50 [10]: 0.47 nM | Maximum mean fluorescence intensity [10]: 5000 | EC50 [11]: 0.91 nM | Maximum mean fluorescence intensity [11]: 4010 | Kd (Human CD16b (NA1)-his): 95.7 nM | koff (Human CD16b (NA1)-his): 0.0485 s⁻¹ | kon (Human CD16b (NA1)-his): 507000 M⁻¹ s⁻¹ | Kd (Human CD16a (158V)-his): 27 nM | koff (Human CD16a (158V)-his): 0.00373 s⁻¹ | kon (Human CD16a (158V)-his): 138000 M⁻¹ s⁻¹ | Kd (Human CD16a (158F)-his): 108 nM | koff (Human CD16a (158F)-his): 0.00831 s⁻¹ | kon (Human CD16a (158F)-his): 76600 M⁻¹ s⁻¹ | EC50, activation activity for Jurkat cell [12]: 0.09 nM | Maximum fluorescence value [12]: 178000 | EC50 [13]: 0.47 nM | Maximum mean fluorescence intensity [13]: 6400 | EC50 [14]: 0.56 nM | Maximum mean fluorescence intensity [14]: 4940
B3: VHH01 VHH-Fc antibody (Fc fusion)
chain: QVQLVESGGGLVQAGGSLRLSCVASRSTLTTYAVRWYRQAPGKQREWVAFISVDGNTNYPDSVKGRFIVSRDNAKNTVYLQMNSLKPEDTADYICRAGGQYWGQGTQVTVSSEPKSSDKTHTCPPCPAPEFEGGPSVFLFPPKPKDTLMISRTPEVTCVVVAVSHEDPEVKFNWYVDGVEVHNAKTKPREEQYNSTYRVVSVLTVLHQDWLNGKEYKCKVSNKALPAPIEKTISKAKGQPREPQVYTLPPSREEMTKNQVSLTCLVKGFYPSDIAVEWESNGQPENNYKTTPPVLDSDGSFFLYSKLTVDKSRWQQGNVFSCSVMHEALHNHYTQKSLSLSPGK
